Measured values taken from US20130171217A1, “ENZYMATIC PERACID GENERATION FOR USE IN SKIN CARE PRODUCTS” (E I DU PONT DE NEMOURS AND COMPANY, priority 2010, published 2013).

Experiment: Perhydrolase activity of targeted hydrolases, ABTS assay
Format: biochemical
Conditions: triacetin at pH 7.5
Experimental: The ABTS assay was performed as follows: hair samples treated as described above were transferred to new 2-mL microcentrifuge tubes (Eppendorf Protein LoBind; Eppendorf North America, Hauppauge, N.Y.) To each tube was added 480 μL of PAH buffer ([…]), 14 μL of 39% hydrogen peroxide (Sigma 3410), and 6 μL triacetin (Sigma-Aldrich W200700). The perhydrolase reaction was allowed to proceed for 10 minutes at room temperature (˜22-25° C.). The reaction was stopped by diluting aliquots 10×, 100× and 1000× with 10 mM phosphoric acid. For detection 50 μL of 1 M acetic acid, 50 μL of 40 mg/mL potassium iodide, and 50 μL of 4 mM ABTS (2,2′-azino-bis(3-ethylbenzthiazoline-6-sulphonic acid; Sigma, St Louis, Mo.) were added to 50 μL of the above dilutions. Color was allowed to develop for 10 minutes and read in a spectrophotometer at 405 nm. Values from no-enzyme controls were subtracted to yield values attributable only to enzyme activity. A standard curve of OD 405 nm vs PAA concentration in ppm yielded a conversion factor of 8.75, such that an OD 405 nm of 1.0 corresponded to approximately 8.75 ppm PAA. This value was then multiplied by the appropriate dilution to arrive at the PAA concentration in the perhydrolase reaction.
The perhydrolase activity of the enzymes targeted to hair with a variety of targeting domains produced as described in Example 32 was measured with the ABTS assay.

Molecule | Specific perhydrolase activity [µmol/mg/min]
SEQ ID NO: 319: acetyl xylan esterase from Lactococcus lactis fused at its C-terminus to hair binding domain HC263 via a flexible linker (protein) MTKINNWQDYQGSSLKPEDFDKFWDEKINLVSNHQFEFELIEKNLSSKVVNFYHLWFTAIDGAKIHAQLIVPKNLKEKYPAILQFHGYHCDSGDWVDKIGIVAEGNVVLALDCRGQGGLSQDNIQTMGMTMKGLIVRGIDEGYENLYYVRQFMDLITATKILSEFDFVDETNISAQGASQGGALAVACAALSPLIKKVTATYPFLSDYRKAYELGAEESAFEELPYWFQFKDPLHLREDWFFNQLEYIDIQNLAPRIKAEVIWILGGKDTVVPPITQMAAYNKIQSKKSLYVLPEYGHEYLPKISDWLRENQGPGSGGAGSPGSAGGPGSPSAQSQLPDKHSGLHERAPQRYGPEPEPEPEPIPEPPKEAPVVIEKPKPKPKPKPKPPAHDHKNQKETHQRHAAGSGGGGSPHHHHHH | 99
SEQ ID NO: 321: acetyl xylan esterase from Mesorhizobium loti fused at its C-terminus to hair binding domain HC263 via a flexible linker (protein) MPFPDLIQPELGAYVSSVGMPDDFAQFWTSTIAEARQAGGEVSIVQAQTTLKAVQSFDVTFPGYGGHPIKGWLILPTHHKGRLPLVVQYIGYGGGRGLAHEQLHWAASGFAYFRMDTRGQGSDWSVGETADPVGSTSSIPGFMTRGVLDKNDYYYRRLFTDAVRAIDALLGLDFVDPERIAVCGDSQGGGISLAVGGIDPRVKAVMPDVPFLCDFPRAVQTAVRDPYLEIVRFLAQHREKKAAVFETLNYFDCVNFARRSKAPALFSVALMDEVCPPSTVYGAFNAYAGEKTITEYEFNNHEGGQGYQERQQMTWLSRLFGVGGPGSGGAGSPGSAGGPGSPSAQSQLPDKHSGLHERAPQRYGPEPEPEPEPIPEPPKEAPVVIEKPKPKPKPKPKPPAHDHKNQKETHQRHAAGSGGGGSPHHHHHH | 34
SEQ ID NO: 325: S54V variant of Mycobacterium smegmatis aryl esterase fused to hair binding domain HC263KtoR via a flexible linker (protein) MAKRILCFGDSLTWGWVPVEDGAPTERFAPDVRWTGVLAQQLGADFEVIEEGLVARTTNIDDPTDPRLNGASYLPSCLATHLPLDLVIIMLGTNDTKAYFRRTPLDIALGMSVLVTQVLTSAGGVGTTYPAPKVLVVSPPPLAPMPHPWFQLIFEGGEQKTTELARVYSALASFMKVPFFDAGSVISTDGVDGIHFTEANNRDLGVALAEQVRSLLGPGSGGAGSPGSAGGPGSPSAQSQLPDRHSGLHERAPQRYGPEPEPEPEPIPEPPREAPVVIERPRPRPRPRPRPPAHDHRNQRETHQRHAAGSGGGGSPHHHHHH | 46
SEQ ID NO: 327: S54V variant of Mycobacterium smegmatis aryl esterase fused to hair binding domain HC1010 via a flexible linker (protein) MAKRILCFGDSLTWGWVPVEDGAPTERFAPDVRWTGVLAQQLGADFEVIEEGLVARTTNIDDPTDPRLNGASYLPSCLATHLPLDLVIIMLGTNDTKAYFRRTPLDIALGMSVLVTQVLTSAGGVGTTYPAPKVLVVSPPPLAPMPHPWFQLIFEGGEQKTTELARVYSALASFMKVPFFDAGSVISTDGVDGIHFTEANNRDLGVALAEQVRSLLGPGSGGAGSPGSAGGPGSAQSQLPDKHSGLHERAPQRYGSGTAEIQSSKNPNPHPQRSWTNGSGHNHMQERYTDPQHSPSVNGLGSGHDHKNQKETHQRHAASSHHHHHH | 20
